The source of these data is patent US20240287138A1, “CYCLIC PEPTIDES FOR INHIBITING TNF RECEPTOR 1 ACTIVITY” (Merck Sharp & Dohme LLC, priority 2023, published 2024).

Numbered stars: 1 amine (or outer) side, 2 acyl side, 3 side chain; on linkers, the order of the positions; unused ones are H or OH. Bridge positions count the residues as written; N and C are the ends. Square brackets hold non-standard residues; d marks the D form. Primed or numbered codes have the meaning given here. bhcLeu = (1R,3S)-3-aminocyclopentane-1-carboxylic acid, O=C([C@@H]1CC[C@H](N[*:1])C1)[*:2]; FX1 = N5-(Pyridin-3-yl)-L-glutamine, O=C(CC[C@H](N[*:1])C(=O)[*:2])Nc1cccnc1; Ala(2-carboxypyrimidin-5-yl) = N[C@@H](Cc1cnc(C(=O)O)nc1)C(=O)O; Trp(βS-Me,7-OMe) = COc1cccc2c([C@H](C)[C@H](N)C(=O)O)c[nH]c12; NEtdA = N-ethyl-D-alanine, CCN([C@H](C)C(=O)[*:2])[*:1]; Trp(βS-Me) = C[C@@H](c1c[nH]c2ccccc12)[C@H](N)C(=O)O; Trp(7-Cl) = N[C@@H](Cc1c[nH]c2c(Cl)cccc12)C(=O)O; Phe(4-CONH2) = NC(=O)c1ccc(C[C@H](N)C(=O)O)cc1; Phe(4-COOH) = N[C@@H](Cc1ccc(C(=O)O)cc1)C(=O)O; Trp(7-aza) = N[C@@H](Cc1c[nH]c2ncccc12)C(=O)O; Phe(4-CH2NH2) = NCc1ccc(C[C@H](N)C(=O)O)cc1; Pip(5R-OH) = O=C(O)[C@@H]1CC[C@@H](O)CN1; αMeW = C[C@](N)(Cc1c[nH]c2ccccc12)C(=O)O; Ala(2-furyl) = N[C@@H](Cc1ccco1)C(=O)O; 2Nal = N[C@@H](Cc1ccc2ccccc2c1)C(=O)O; Val(3-OH) = CC(C)(O)[C@H](N)C(=O)O; Pip(4-aza) = O=C(O)[C@@H]1CNCCN1; 3Pal = N[C@@H](Cc1cccnc1)C(=O)O; 4Pal = N[C@@H](Cc1ccncc1)C(=O)O; NMeE = CN[C@@H](CCC(=O)O)C(=O)O; dHyp = O=C(O)[C@H]1C[C@H](O)CN1; NMeS = CN[C@@H](CO)C(=O)O; αMeS = C[C@](N)(CO)C(=O)O; Nle = CCCC[C@H](N)C(=O)O; Pip2c = not defined here; dNMeA = CN[C@H](C)C(=O)O; Ahp′ = not defined here; Dap = NC[C@H](N)C(=O)O; Sar = CNCC(=O)O

B1: SEQ ID NO. 270 (peptide)
peptide: {CH2CO}-[Nle][4Pal][NMeS]W[NMeE]N[4Pal][Trp(7-Cl)][αMeS][Phe(4-COOH)][Phe3CONH2][Sar][Trp(βS-Me,7-OMe)]C-NH2
modifications: thioether N-14
B2: SEQ ID NO. 166 (peptide)
peptide: cyclo([bhcLeu][FX1][4Pal][NMeS]W[NMeE]N[4Pal][Trp(7-Cl)][αMeS][Phe(4-COOH)]Y[Sar][Trp(βS-Me,7-OMe)])
SMILES: COc1cccc2c([C@H](C)[C@@H]3NC(=O)CN(C)C(=O)[C@H](Cc4ccc(O)cc4)NC(=O)[C@H](Cc4ccc(C(=O)O)cc4)NC(=O)[C@](C)(CO)NC(=O)[C@H](Cc4c[nH]c5c(Cl)cccc45)NC(=O)[C@H](Cc4ccncc4)NC(=O)[C@H](CC(N)=O)NC(=O)[C@H](CCC(=O)O)N(C)C(=O)[C@H](Cc4c[nH]c5ccccc45)NC(=O)[C@H](CO)N(C)C(=O)[C@H](Cc4ccncc4)NC(=O)[C@H](CCC(=O)Nc4cccnc4)NC(=O)[C@@H]4CC[C@@H](C4)NC3=O)c[nH]c12
B3: SEQ ID NO. 191 (peptide)
peptide: cyclo([bhcLeu][Nle][4Pal][Pip(5R-OH)]W[dHyp]N[Phe(4-COOH)][Trp(7-Cl)][αMeS][Phe(4-CONH2)][Ala(2-carboxypyrimidin-5-yl)][Sar][Trp(βS-Me,7-OMe)])
SMILES: CCCC[C@@H]1NC(=O)[C@@H]2CC[C@@H](C2)NC(=O)[C@H]([C@@H](C)c2c[nH]c3c(OC)cccc23)NC(=O)CN(C)C(=O)[C@H](Cc2cnc(C(=O)O)nc2)NC(=O)[C@H](Cc2ccc(C(N)=O)cc2)NC(=O)[C@](C)(CO)NC(=O)[C@H](Cc2c[nH]c3c(Cl)cccc23)NC(=O)[C@H](Cc2ccc(C(=O)O)cc2)NC(=O)[C@H](CC(N)=O)NC(=O)[C@H]2C[C@H](O)CN2C(=O)[C@H](Cc2c[nH]c3ccccc23)NC(=O)[C@@H]2CC[C@@H](O)CN2C(=O)[C@H](Cc2ccncc2)NC1=O
B4: SEQ ID NO. 236 (peptide)
peptide: {CH2CO}-[Nle][4Pal][Pip(4-aza)]W[dP]N[Ala(2-furyl)][Trp(7-Cl)][αMeS][Phe(4-COOH)]Y[Sar][Trp(βS-Me,7-OMe)]C-NH2
modifications: thioether N-14
SMILES: CCCC[C@@H]1NC(=O)CSC[C@@H](C(N)=O)NC(=O)[C@H]([C@@H](C)c2c[nH]c3c(OC)cccc23)NC(=O)CN(C)C(=O)[C@H](Cc2ccc(O)cc2)NC(=O)[C@H](Cc2ccc(C(=O)O)cc2)NC(=O)[C@](C)(CO)NC(=O)[C@H](Cc2c[nH]c3c(Cl)cccc23)NC(=O)[C@H](Cc2ccco2)NC(=O)[C@H](CC(N)=O)NC(=O)[C@H]2CCCN2C(=O)[C@H](Cc2c[nH]c3ccccc23)NC(=O)[C@@H]2CNCCN2C(=O)[C@H](Cc2ccncc2)NC1=O
B5: SEQ ID NO. 237 (peptide)
peptide: {CH2CO}-[Ahp′][4Pal]S[Trp(βS-Me)][dP]N[Phe(4-COOH)][2Nal][αMeS][Phe(4-COOH)]H[Sar][αMeW]C-NH2
modifications: thioether N-14; reading uncertain; also: printed as cyclo(ClAc-Ahp-4Pal-S-SbMeW-dP-N-Phe4COOH-2Nal-aMeS-Phe4COOH-H-Sar-aMeW-C)-NH2
B6: SEQ ID NO. 276 (peptide)
peptide: {CH2CO}-[Nle][4Pal][Pip2c]W[dP]N[4Pal][Trp(7-Cl)][αMeS][Phe(4-COOH)]Y[dNMeA][Trp(βS-Me,7-OMe)]C-NH2
modifications: thioether N-14; reading uncertain
B7: SEQ ID NO. 255 (peptide)
peptide: {CH2CO}-[Nle][4Pal][Pip(4-aza)][Trp(7-aza)][NMeE]N[4Pal][Trp(7-Cl)][αMeS][Phe(4-COOH)]Y[Sar][Trp(βS-Me,7-OMe)]CGEE-NH2
modifications: thioether N-14
SMILES: CCCC[C@@H]1NC(=O)CSC[C@@H](C(=O)NCC(=O)N[C@@H](CCC(=O)O)C(=O)N[C@@H](CCC(=O)O)C(N)=O)NC(=O)[C@H]([C@@H](C)c2c[nH]c3c(OC)cccc23)NC(=O)CN(C)C(=O)[C@H](Cc2ccc(O)cc2)NC(=O)[C@H](Cc2ccc(C(=O)O)cc2)NC(=O)[C@](C)(CO)NC(=O)[C@H](Cc2c[nH]c3c(Cl)cccc23)NC(=O)[C@H](Cc2ccncc2)NC(=O)[C@H](CC(N)=O)NC(=O)[C@H](CCC(=O)O)N(C)C(=O)[C@H](Cc2c[nH]c3ncccc23)NC(=O)[C@@H]2CNCCN2C(=O)[C@H](Cc2ccncc2)NC1=O
B8: SEQ ID NO. 264 (peptide)
peptide: {CH2CO}-[Nle]H[Pip2c][Trp(7-aza)][NMeE]N[4Pal][Trp(7-Cl)][αMeS][Phe(4-COOH)]Y[Sar][Trp(βS-Me,7-OMe)]C-NH2
modifications: thioether N-14; reading uncertain; also: printed as cyclo(ClAc-Nle-H-Pip2c-Trp7az-NMeE-N-4Pal-Trp7Cl-aMeS-Phe4COOH-Y-Sar-SbMeW7OMe-C)-NH2
B9: SEQ ID NO. 178 (peptide)
peptide: cyclo([bhcLeu][Nle][4Pal][Pip(4-aza)]W[NMeE]N[4Pal][Trp(7-Cl)][αMeS][Phe(4-COOH)]H[Sar][Trp(βS-Me,7-OMe)])
SMILES: CCCC[C@@H]1NC(=O)[C@@H]2CC[C@@H](C2)NC(=O)[C@H]([C@@H](C)c2c[nH]c3c(OC)cccc23)NC(=O)CN(C)C(=O)[C@H](Cc2c[nH]cn2)NC(=O)[C@H](Cc2ccc(C(=O)O)cc2)NC(=O)[C@](C)(CO)NC(=O)[C@H](Cc2c[nH]c3c(Cl)cccc23)NC(=O)[C@H](Cc2ccncc2)NC(=O)[C@H](CC(N)=O)NC(=O)[C@H](CCC(=O)O)N(C)C(=O)[C@H](Cc2c[nH]c3ccccc23)NC(=O)[C@@H]2CNCCN2C(=O)[C@H](Cc2ccncc2)NC1=O
B10: SEQ ID NO. 217 (peptide)
peptide: {CH2CO}-[Nle]H[Val(3-OH)][Trp(7-aza)][NMeE]N[4Pal][Trp(7-Cl)][αMeS][Phe(4-COOH)]Y[Sar][Trp(βS-Me,7-OMe)]C-NH2
modifications: thioether N-14
SMILES: CCCC[C@@H]1NC(=O)CSC[C@@H](C(N)=O)NC(=O)[C@H]([C@@H](C)c2c[nH]c3c(OC)cccc23)NC(=O)CN(C)C(=O)[C@H](Cc2ccc(O)cc2)NC(=O)[C@H](Cc2ccc(C(=O)O)cc2)NC(=O)[C@](C)(CO)NC(=O)[C@H](Cc2c[nH]c3c(Cl)cccc23)NC(=O)[C@H](Cc2ccncc2)NC(=O)[C@H](CC(N)=O)NC(=O)[C@H](CCC(=O)O)N(C)C(=O)[C@H](Cc2c[nH]c3ncccc23)NC(=O)[C@H](C(C)(C)O)NC(=O)[C@H](Cc2c[nH]cn2)NC1=O
B11: SEQ ID NO. 226 (peptide)
peptide: {CH2CO}-[Ahp′]Y[AlaPiperaz][Trp(βS-Me)][dP]N[4Pal][Trp(7-Cl)][αMeS][Phe(4-COOH)][3Pal][Sar][αMeW]C-NH2
modifications: thioether N-14; reading uncertain; also: printed as cyclo(ClAc-Ahp-Y-AlaPiperaz-SbMeW-dP-N-4Pal-Trp7Cl-aMeS-Phe4COOH-3Pal-Sar-aMeW-C)-NH2
B12: SEQ ID NO. 186 (peptide)
peptide: {CH2CO}-[Nle][4Pal][Pip(5R-OH)]W[NEtdA]N[4Pal][Trp(7-Cl)][αMeS][Phe(4-CONH2)]Y[Sar][Trp(βS-Me,7-OMe)]C-NH2
modifications: thioether N-14
SMILES: CCCC[C@@H]1NC(=O)CSC[C@@H](C(N)=O)NC(=O)[C@H]([C@@H](C)c2c[nH]c3c(OC)cccc23)NC(=O)CN(C)C(=O)[C@H](Cc2ccc(O)cc2)NC(=O)[C@H](Cc2ccc(C(N)=O)cc2)NC(=O)[C@](C)(CO)NC(=O)[C@H](Cc2c[nH]c3c(Cl)cccc23)NC(=O)[C@H](Cc2ccncc2)NC(=O)[C@H](CC(N)=O)NC(=O)[C@@H](C)N(CC)C(=O)[C@H](Cc2c[nH]c3ccccc23)NC(=O)[C@@H]2CC[C@@H](O)CN2C(=O)[C@H](Cc2ccncc2)NC1=O
B13: SEQ ID NO. 245 (peptide)
peptide: {CH2CO}-[LysN3][4Pal][Dap][Trp(βS-Me)][dP]N[4Pal][Trp(7-Cl)][αMeS][Phe(4-COOH)][Phe(4-CH2NH2)][Sar][αMeW]C-NH2
modifications: thioether N-14
B14: SEQ ID NO. 158 (peptide)
peptide: {CH2CO}-[Nle][4Pal][Pip2c][Trp(7-aza)][NMeE]N[4Pal][Trp(7-Cl)][αMeS][Phe(4-COOH)][TyrOCF3][Sar][Trp(βS-Me,7-OMe)]C-NH2
modifications: thioether N-14; reading uncertain; also: printed as cyclo(ClAc-Nle-4Pal-Pip2c-Trp7az-NMeE-N-4Pal-Trp7Cl-aMeS-Phe4COOH-TyrOCF3-Sar-SbMeW7OMe-C)-NH2

The test has as its target C'-terminally 6His-tagged human soluble TNFR1 (sTNFR1, residues 1-211) (human). Briefly: TR-FRET displacement of biotinylated peptide SEQ ID NO. 1 from sTNFR1-6His. On the technique in general: In TR-FRET formats the signal depends on donor and acceptor labels being close together.
The term IC50 denotes the midpoint of a concentration-inhibition curve. The low end stands for greater potency, the high end for weaker potency. B1 gave an IC50 of 0.55 nM.
The molecule B2 displayed an IC50 of 0.5 nM and a Kd^app of 0.44 nM.
Turning to B3, the Kd^app came to 0.18 nM.
B4 came in with an IC50 of 0.9 nM.
B5 gave an IC50 of 13 nM.
Same read-out and setting: under B6 stands 2.41 nM.
B7 had an IC50 of 0.7 nM and a Kd^app of 1.01 nM.
Take B8: the IC50 was found to be 1.49 nM.
In the case of B9, the Kd^app worked out at 0.29 nM.
The molecule B10 showed an IC50 of 1 nM and a Kd^app of 0.73 nM.
B11 had an IC50 of 1.16 nM.
B12 displayed an IC50 of 0.5 nM and a Kd^app of 0.42 nM.
Regarding B13, the IC50 was 0.95 nM. In other words, the sub-nanomolar range.
For the molecule B14, the IC50 worked out at 1.79 nM.
